B1: Mothers against decapentaplegic homolog 4 (Homo sapiens), Q13485 (parent)
chain: MDNMSITNTPTSNDACLSIVHSLMCHRQGGESETFAKRAIESLVKKLKEKKDELDSLITAITTNGAHPSKCVTIQRTLDGRLQVAGRKGFPHVIYARLWRWPDLHKNELKHVKYCQYAFDLKCDSVCVNPYHYERVVSPGIDLSGLTLQSNAPSSMMVKDEYVHDFEGQPSLSTEGHSIQTIQHPPSNRASTETYSTPALLAPSESNATSTANFPNIPVASTSQPASILGGSHSEGLLQIASGPQPGQQQNGFTGQPATYHHNSTTTWTGSRTAPYTPNLPHHQNGHLQHHPPMPPHPGHYWPVHNELAFQPPISNHPAPEYWCSIAYFEMDVQVGETFKVPSSCPIVTVDGYVDPSGGDRFCLGQLSNVHRTEAIERARLHIGKGVQLECKGEGDVWVRCLSDHAVFVQSYYLDREAGRAPGDAVHKIYPSAYIKVFDLRQCHRQMQQQAATAQAAAAAQAAAVAGNIPGPGSVGGIAPAISLSAAAGIGVDDLRRLCILRMSFVKGWGPDYPRQSIKETPCWIEIHLHRALQLLDEVLHTMPIADPQPLD
partner: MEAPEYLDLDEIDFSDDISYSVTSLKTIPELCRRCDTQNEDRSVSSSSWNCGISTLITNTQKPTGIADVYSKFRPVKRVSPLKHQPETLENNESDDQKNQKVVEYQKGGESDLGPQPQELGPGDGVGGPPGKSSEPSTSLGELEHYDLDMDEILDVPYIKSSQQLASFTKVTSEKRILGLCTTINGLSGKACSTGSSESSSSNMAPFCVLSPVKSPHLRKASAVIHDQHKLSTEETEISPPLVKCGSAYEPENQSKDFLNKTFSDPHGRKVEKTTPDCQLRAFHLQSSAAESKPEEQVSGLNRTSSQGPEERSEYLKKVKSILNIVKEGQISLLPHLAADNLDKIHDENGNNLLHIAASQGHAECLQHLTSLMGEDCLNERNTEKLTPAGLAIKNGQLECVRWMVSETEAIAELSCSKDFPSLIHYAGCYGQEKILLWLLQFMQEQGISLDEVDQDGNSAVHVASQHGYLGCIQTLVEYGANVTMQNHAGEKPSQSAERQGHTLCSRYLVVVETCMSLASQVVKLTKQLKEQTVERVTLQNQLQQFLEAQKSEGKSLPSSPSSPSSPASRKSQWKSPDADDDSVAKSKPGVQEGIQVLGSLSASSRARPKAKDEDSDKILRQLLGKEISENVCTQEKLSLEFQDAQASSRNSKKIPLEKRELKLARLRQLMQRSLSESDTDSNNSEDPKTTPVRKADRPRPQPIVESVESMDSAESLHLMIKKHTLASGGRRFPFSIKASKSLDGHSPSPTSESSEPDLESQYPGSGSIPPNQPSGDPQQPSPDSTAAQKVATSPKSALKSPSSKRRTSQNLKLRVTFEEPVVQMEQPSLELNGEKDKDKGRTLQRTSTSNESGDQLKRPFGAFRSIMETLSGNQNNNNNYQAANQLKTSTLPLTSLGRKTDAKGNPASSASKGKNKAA
B2: Mothers against decapentaplegic homolog 4 (Homo sapiens), Q13485 (parent)
chain: B1 chain
partner: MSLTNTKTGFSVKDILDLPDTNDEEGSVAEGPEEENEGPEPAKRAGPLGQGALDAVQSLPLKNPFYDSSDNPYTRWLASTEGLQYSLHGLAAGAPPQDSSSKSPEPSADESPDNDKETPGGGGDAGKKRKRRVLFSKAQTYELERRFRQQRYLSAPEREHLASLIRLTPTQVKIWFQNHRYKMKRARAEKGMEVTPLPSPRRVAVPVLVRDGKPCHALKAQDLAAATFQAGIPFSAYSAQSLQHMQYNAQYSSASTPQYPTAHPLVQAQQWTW
B3: Mothers against decapentaplegic homolog 4 (Homo sapiens), Q13485 (parent)
chain: B1 chain
partner: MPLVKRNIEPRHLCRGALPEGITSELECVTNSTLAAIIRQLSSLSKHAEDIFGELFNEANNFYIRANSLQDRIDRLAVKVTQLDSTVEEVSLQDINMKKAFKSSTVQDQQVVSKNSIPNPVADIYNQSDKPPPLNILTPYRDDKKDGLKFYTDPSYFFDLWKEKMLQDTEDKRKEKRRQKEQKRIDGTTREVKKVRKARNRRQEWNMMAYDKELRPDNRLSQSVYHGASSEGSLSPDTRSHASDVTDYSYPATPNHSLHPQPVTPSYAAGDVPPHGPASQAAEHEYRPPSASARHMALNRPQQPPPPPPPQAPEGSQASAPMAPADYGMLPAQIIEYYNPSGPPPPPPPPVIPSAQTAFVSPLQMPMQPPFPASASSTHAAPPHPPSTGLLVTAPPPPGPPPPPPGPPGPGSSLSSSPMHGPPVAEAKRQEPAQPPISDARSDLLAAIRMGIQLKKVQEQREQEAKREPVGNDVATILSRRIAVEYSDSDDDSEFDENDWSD

The variants in the first assay derive from B1. The settings on record: with sncap_human SNCAIP.
For the variant G386D, the “effect of a mutation on the interaction” value is reported as “with no effect”.

The variants in the next assay derive from B1. Particulars: with sncap_human SNCAIP. The source holds these as a separate data set.
With R361C, the “effect of a mutation on the interaction” value is reported as “with no effect”.

The variants in the next assay derive from B1. The settings on record: with sncap_human SNCAIP. The source holds these as a separate data set.
Consider R361H, for which the “effect of a mutation on the interaction” value was “with no effect”.

In a further assay the parent is B2. The settings on record: with nkx22_human NKX2-2, O95096.
On to D351H, for which the “effect of a mutation on the interaction” value was “with no effect”.

Another assay covers variants of B2. The settings on record: with nkx22_human NKX2-2, O95096. This is another data set of the same source.
Regarding R361C, the “effect of a mutation on the interaction” value was “with no effect”.

In the next assay the parent is B2. The settings on record: with nkx22_human NKX2-2, O95096. This is another data set of the same source.
On to R361H, for which the “effect of a mutation on the interaction” value was “with no effect”.

In a further assay the parent is B3. Particulars: with wasf3_human WASF3, Q9UPY6.
In the case of G386D, the “effect of a mutation on the interaction” value was “with no effect”.

In the next assay the parent is B3. Particulars: with wasf3_human WASF3, Q9UPY6. This is another data set of the same source.
Take G386D: the “effect of a mutation on the interaction” value was “increasing interaction strength”.

Variants of B3 are the subject of the next assay. The settings on record: with wasf3_human WASF3, Q9UPY6. This is another data set of the same source.
As to R361H, the “effect of a mutation on the interaction” value is “with no effect”.

The variants in another assay derive from B3. Particulars: with wasf3_human WASF3, Q9UPY6. The source holds these as a separate data set.
Take R361C: the “effect of a mutation on the interaction” value is listed as “with no effect”.

A further assay covers variants of B3. The settings on record: with wasf3_human WASF3, Q9UPY6. The source holds these as a separate data set.
For D351H, the “effect of a mutation on the interaction” value is reported as “with no effect”.

Source of the values: IntAct's records for PubMed 35512704.
